*1 amine or outer side, *2 acyl side, *3 side chain or, on linkers, in order; H or OH if unused. Where no end group is shown, it is not given here. [ ]: non-standard residue; d: D form. Sac = acetylated serine, O-acetyl-L-serine, CC(=O)OC[C@H](N[*:1])C(=O)[*:2]
Key:
[1] = target: T1, acetylated peptide PFTSacFSVPDPELI (SEQ ID NO: 3) including acetylated S565 residue of COX2 (human); assay: ELISA, 96-well plate coated with 9F7-2, peptide captured, biotinylated COX2 antibody detection
T1 peptide: PFT[Sac]FSVPDPELI

[2] = target: T2, human COX2 (cyclooxygenase 2) protein with acetylated S565 residue (human, UniProt P35354 18-604, acetylated serine at S565); assay: sandwich ELISA on human microglia lysates, plate coated with 9F7-2
T2 construct: Endogenous protein in RIPA lysates of human microglia and human PBMCs, and in human brain tissue sections; also called S565 acetylated COX2 protein; acetylated COX2 protein
T2 sequence: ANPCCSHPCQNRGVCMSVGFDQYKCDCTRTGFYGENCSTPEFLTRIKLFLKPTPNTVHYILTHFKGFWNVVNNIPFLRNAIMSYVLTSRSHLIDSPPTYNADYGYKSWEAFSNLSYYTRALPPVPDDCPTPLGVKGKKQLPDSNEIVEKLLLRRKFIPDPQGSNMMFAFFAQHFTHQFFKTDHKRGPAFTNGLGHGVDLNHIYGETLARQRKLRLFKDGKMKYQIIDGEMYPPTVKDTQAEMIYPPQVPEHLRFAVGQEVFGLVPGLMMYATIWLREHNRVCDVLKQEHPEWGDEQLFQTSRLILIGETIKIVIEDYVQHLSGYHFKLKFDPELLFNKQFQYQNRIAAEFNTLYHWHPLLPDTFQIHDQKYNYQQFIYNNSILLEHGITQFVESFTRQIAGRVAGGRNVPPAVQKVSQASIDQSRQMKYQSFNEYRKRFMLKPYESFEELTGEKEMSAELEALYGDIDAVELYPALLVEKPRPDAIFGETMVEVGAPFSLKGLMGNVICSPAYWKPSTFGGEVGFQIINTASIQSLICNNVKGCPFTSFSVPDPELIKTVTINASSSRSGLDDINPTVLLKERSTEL

[3] = target: T3, acetylated peptide GCPFTSacFSVPD (SEQ ID NO: 4) including acetylated S565 residue of COX2 (human); assay: ELISA, plate coated with antibody, peptide captured, biotinylated COX2 antibody detection
T3 peptide: GCPFT[Sac]FSVPD

[4] = target: T2, human COX2 (cyclooxygenase 2) protein …; assay: sandwich ELISA on human PBMC lysates, plate coated with 44C7C8
Method: The sample preparation was performed according to the following procedure. After collecting mouse and human blood, the blood was transferred to a heparin tube and reacted for 30 minutes. The reacted blood was placed on the same amount of Histopaque (sigma, 10771) and centrifuged (400 g, 30 minutes). After centrifugation, a middle PBMC layer was separated and washed. After washing, the PBMCs were lysed by adding an RIPA solution (Cell signaling, 9806S), and then the cell lysate was centrifuged (13,000×g, 10 minutes) to obtain a supernatant, and then the amount of protein was quantified and ELISA assay was performed using 100 μg/ml of protein.
After the plate was washed with PBS/Tween, 300 μl/well of a blocking solution was applied at RT for 1 hour. 50 μl of a PBMC sample (100 μg/ml) was treated and incubated at RT for 2 hours. […] After the final washing, the detection was performed with TMB (3-3′,5,5′-tetramethylbenzidine) ([…] substrate for HRP) and the plate was read at 405 nm using an ELISA plate reader. A standard curve was obtained by step-diluting the peptide (500 μg/ml) of SEQ ID NO: 3 or SEQ ID NO: 4, and the amount of COX2 protein acetylated in S565 residue was calculated by substituting an optical density (O.D.) value obtained from the sample to the Standard curve.

B1: monoclonal antibody 9F7-2 (antibody, V domains shown)
VH: QVQLQQSGAELVRPGTSVKISCKASGYTFTDYLLGWVKQRPGHGLEWIGDIYPGGTYIKYNEKFKGKATLTADTSSSTAYMQLSSLTSEDSAVYFCARGRNDEKGDYWGQGTSVTVSS
VL: DVLMTQTPLSLPVSLGDQASISCRSSQSIVHRNGFTYLEWYLQKPGQSPKLLIYQVSNRFSGVPDRFSGSGSGTDFTLKISRVEAEDLGVYYCFQGSHVPPTFGGGTKLEIK
notes: Clones were screened for IgG expression; the isotype and constant regions are not
B1: binds [1]; binds [2].

B2: monoclonal antibody 44C7C8 (antibody, V domains shown)
VH: DVQLQESGPGLVKPSQSLSLTCSVTGYSITSGYYWNWIRQFPGNKLEWMGYISYDGSNNYNPSLKNRISITRDTYKKQFFLKLNSVTTEDTATYYCARGADYYGNTYFYFDVWGAGTTVTVSS
VL: DIVMSQSPSSLAVSVEEKVNMSCKSSQSLLYSRNQKNYLAWYQQKPGQSPKLLIYWASTRESGVPDRFTGSGAGTDFTLTISSVKAEDLAVYYCQQYYTYPFTFGSGTKLEIK
notes: the isotype and constant regions are not; The methods call it 44C7F5 or 44C75F and the results call it 44C7C8; also called 44C7F5; 44C75F
B2: binds [3]; binds [4].
